The record followed here is patent US20250270332A1.

In the assay the target is FZD1/2/4/5/7/8. The assay is described as follows: cell-based or functional assay.

B1: CM0126 (Dia-Fc-Dia) (bispecific antibody)
chain 1: MNLLLILTFVAAAVAEFEVQLVESGGGLVQPGGSLRLSCAASGFNIHSSSIHWVRQAPGKGLEWVAATYSSFGSITYADSVKGRFTISADTSKNTAYLQMNSLRAEDTAVYYCARYHHPFGYALDYWGQGTLVTVSSGGGGSDIQMTQSPSSLSASVGDRVTITCRASQSVSSAVAWYQQKPGKAPKLLIYSASSLYSGVPSRFSGSRSGTDFTLTISSLQPEDFATYYCQQGVYLFTFGQGTKVEIKLEDKTHTKVEPKSSDKTHNCPPCPAPELLGGPSVFLFPPKPKDTLMISRTPEVTCVVVDVSHEDPEVKFNWYVDGVEVHNAKTKPREEQYNSTYRVVSVLTVLHQDWLNGKEYKCKVSNKALPAPIEKTISKAKGQPREPQVYTLPPIRELMTSNQVSLSCAVKGFYPSDIAVEWESNGQPENNYKTTPPVLDSDGSFFLVSKLTVDKSRWQQGNVFSCSVMHEALHNHYTQKSLSLSPGKSGSETPGTSESATPESGGGEVQLVESGGGLVQPGGSLRLSCAASGFNISSYYIHWVRQAPGKGLEWVASIYSSYGYTSYADSVKGRFTISADTSKNTAYLQMNSLRAEDTAVYYCARTVRGSKKPYFSGWAMDYWGQGTLVTVSSGGGGSDIQMTQSPSSLSASVGDRVTITCRASQSVSSAVAWYQQKPGKAPKLLIYSASSLYSGVPSRFSGSRSGTDFTLTISSLQPEDFATYYCQQYSWGPFTFGQGTKVEIK
chain 2: MNLLLILTFVAAAVAEFEVQLVESGGGLVQPGGSLRLSCAASGFNIHSSSIHWVRQAPGKGLEWVAATYSSFGSITYADSVKGRFTISADTSKNTAYLQMNSLRAEDTAVYYCARYHHPFGYALDYWGQGTLVTVSSGGGGSDIQMTQSPSSLSASVGDRVTITCRASQSVSSAVAWYQQKPGKAPKLLIYSASSLYSGVPSRFSGSRSGTDFTLTISSLQPEDFATYYCQQGVYLFTFGQGTKVEIKLEDKTHTKVEPKTSDKTHTCPPCPAPELLGGPSVFLFPPKPKDTLMISRTPEVTCVVVDVSHEDPEVKFNWYVDGVEVHNAKTKPREEQYNSTYRVVSVLTVLHQDWLNGKEYKCKVSNKALPAPIEKTISKAKGQPREPMVFDLPPSREEMTKNQVSLWCMVKGFYPSDIAVEWESNGQPENNYKTTPPVLDSDGSFFLYSKLTVDKSRWQQGNVFSCSVMHEALHNHYTQKSLSLSPGKSGSETPGTSESATPESGGGEVQLVESGGGLVQPGGSLRLSCAASGFNISYSSIHWVRQAPGKGLEWVAYISSYYGYTYYADSVKGRFTISADTSKNTAYLQMNSLRAEDTAVYYCARAHYFPWAGAMDYWGQGTLVTVSSGGGGSDIQMTQSPSSLSASVGDRVTITCRASQSVSSAVAWYQQKPGKAPKLLIYSASSLYSGVPSRFSGSRSGTDFTLTISSLQPEDFATYYCQQYYWPITFGQGTKVEIK
B1 had a % Wnt Maxima Avg of 52%; an EC50 (nM), TOPFLASH assay of 0.3 nM; a Maximal Signal (% Wnt3a maxima) (% Wnt3a maxima) of 52; a Topflash EC50 (nM) Avg of 0.3 nM.

B2: CT0001 (bispecific antibody)
heavy 1: EVQLVESGGGLVQPGGSLRLSCAASGFNIHSSSIHWVRQAPGKGLEWVAATYSSFGSITYADSVKGRFTISADTSKNTAYLQMNSLRAEDTAVYYCARYHHPFGYALDYWGQGTLVTVSSASTKGPSVFPLAPSSKSTSGGTAALGCLVKDYFPEPVTVSWNSGALTSGVHTFPAVLQSSGLYSLSSVVTVPSSSLGTQTYICNVNHKPSNTKVDKKVEPKSCDKTHTCPPCPAPELLGGPSVFLFPPKPKDTLMISRTPEVTCVVVDVSHEDPEVKFNWYVDGVEVHNAKTKPREEQYNSTYRVVSVLTVLHQDWLNGKEYKCKVSNKALPAPIEKTISKAKGQPREPQVYTLPPIRELMTSNQVSLSCAVKGFYPSDIAVEWESNGQPENNYKTTPPVLDSDGSFFLVSKLTVDKSRWQQGNVFSCSVMHEALHNHYTQKSLSLSPGKSGSETPGTSESATPESGGGEVQLVESGGGLVQPGGSLRLSCAASGFNISSYYIHWVRQAPGKGLEWVASIYSSYGYTSYADSVKGRFTISADTSKNTAYLQMNSLRAEDTAVYYCARTVRGSKKPYFSGWAMDYWGQGTLVTVSSGGGGSDIQMTQSPSSLSASVGDRVTITCRASQSVSSAVAWYQQKPGKAPKLLIYSASSLYSGVPSRFSGSRSGTDFTLTISSLQPEDFATYYCQQYSWGPFTFGQGTKVEIK
heavy 2: EVQLVESGGGLVQPGGSLRLSCAASGFNIHSSSIHWVRQAPGKGLEWVAATYSSFGSITYADSVKGRFTISADTSKNTAYLQMNSLRAEDTAVYYCARYHHPFGYALDYWGQGTLVTVSSASTKGPSVFPLAPSSKSTSGGTAALGCLVKDYFPEPVTVSWNSGALTSGVHTFPAVLQSSGLYSLSSVVTVPSSSLGTQTYICNVNHKPSNTKVDKKVEPKSCDKTHTCPPCPAPELLGGPSVFLFPPKPKDTLMISRTPEVTCVVVDVSHEDPEVKFNWYVDGVEVHNAKTKPREEQYNSTYRVVSVLTVLHQDWLNGKEYKCKVSNKALPAPIEKTISKAKGQPREPMVFDLPPSREEMTKNQVSLWCMVKGFYPSDIAVEWESNGQPENNYKTTPPVLDSDGSFFLYSKLTVDKSRWQQGNVFSCSVMHEALHNHYTQKSLSLSPGKSGSETPGTSESATPESGGGEVQLVESGGGLVQPGGSLRLSCAASGFNISYSSIHWVRQAPGKGLEWVAYISSYYGYTYYADSVKGRFTISADTSKNTAYLQMNSLRAEDTAVYYCARAHYFPWAGAMDYWGQGTLVTVSSGGGGSDIQMTQSPSSLSASVGDRVTITCRASQSVSSAVAWYQQKPGKAPKLLIYSASSLYSGVPSRFSGSRSGTDFTLTISSLQPEDFATYYCQQYYWPITFGQGTKVEIK
light: DIQMTQSPSSLSASVGDRVTITCRASQSVSSAVAWYQQKPGKAPKLLIYSASSLYSGVPSRFSGSRSGTDFTLTISSLQPEDFATYYCQQGVYLFTFGQGTKVEIKRTVAAPSVFIFPPSDEQLKSGTASVVCLLNNFYPREAKVQWKVDNALQSGNSQESVTEQDSKDSTYSLSSTLTLSKADYEKHKVYACEVTHQGLSSPVTKSFNRGEC
On to B2, for which the % Wnt Maxima Avg worked out at 57%; the EC50 (nM), TOPFLASH assay was 0.3 nM; the Maximal Signal (% Wnt3a maxima) (% Wnt3a maxima) was 57; the Topflash EC50 (nM) Avg came to 0.3 nM.
